Test results from PMC9482650, “Quantitative fragmentomics allow affinity mapping of interactomes” (Nature Communications, 2022).

T1: GRIP1_5, Q9Y3R0
T1 sequence (Q9Y3R0 568-668, limits assumed, looked up): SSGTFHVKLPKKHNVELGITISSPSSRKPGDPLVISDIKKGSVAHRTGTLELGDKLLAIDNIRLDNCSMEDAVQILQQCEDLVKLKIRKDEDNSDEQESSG

T2: SYNJ2BP, P57105
T2 sequence (P57105 8-110, limits assumed, looked up): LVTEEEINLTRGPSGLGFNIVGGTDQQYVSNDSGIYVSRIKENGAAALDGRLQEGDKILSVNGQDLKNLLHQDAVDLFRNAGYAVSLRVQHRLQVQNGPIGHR

T3: TIAM2, Q8IVF5
T3 sequence (Q8IVF5 885-986, limits assumed, looked up): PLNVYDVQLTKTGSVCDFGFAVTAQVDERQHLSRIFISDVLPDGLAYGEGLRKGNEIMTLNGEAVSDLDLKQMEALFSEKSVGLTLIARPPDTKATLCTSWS

T4: SNTG1, Q9NSN8
T4 sequence (Q9NSN8 52-150, limits assumed, looked up): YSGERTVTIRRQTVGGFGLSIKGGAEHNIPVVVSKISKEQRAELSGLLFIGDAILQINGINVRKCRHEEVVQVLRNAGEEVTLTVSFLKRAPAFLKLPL

T5: NHERF3_4, Q5T2W1
T5 sequence (Q5T2W1 373-468, limits assumed, looked up): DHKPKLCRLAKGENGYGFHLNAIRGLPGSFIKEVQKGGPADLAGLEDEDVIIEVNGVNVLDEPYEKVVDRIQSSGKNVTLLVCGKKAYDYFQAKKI

T6: SNTG2, Q9NY99
T6 sequence (Q9NY99 68-166, limits assumed, looked up): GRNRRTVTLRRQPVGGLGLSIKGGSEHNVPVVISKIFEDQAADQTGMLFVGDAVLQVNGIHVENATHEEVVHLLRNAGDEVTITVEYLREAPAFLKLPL

T7: LNX2_2, Q8N448
T7 sequence (Q8N448 334-432, limits assumed, looked up): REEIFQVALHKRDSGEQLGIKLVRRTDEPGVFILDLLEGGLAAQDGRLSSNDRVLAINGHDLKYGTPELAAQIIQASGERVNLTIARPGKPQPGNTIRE

T8: MPDZ_12, O75970
T8 sequence (O75970 1857-1958, limits assumed, looked up): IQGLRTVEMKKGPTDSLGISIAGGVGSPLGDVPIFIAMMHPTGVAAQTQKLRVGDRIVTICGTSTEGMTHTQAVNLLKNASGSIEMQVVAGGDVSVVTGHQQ

T9: PDZRN3_1, Q9UPQ7
T9 sequence (Q9UPQ7 244-349, limits assumed, looked up): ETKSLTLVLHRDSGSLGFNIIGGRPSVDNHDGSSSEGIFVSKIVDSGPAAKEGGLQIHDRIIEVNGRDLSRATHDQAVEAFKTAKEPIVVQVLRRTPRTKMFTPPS

T10: TX1BP3, O14907
T10 sequence (O14907 10-122, limits assumed, looked up): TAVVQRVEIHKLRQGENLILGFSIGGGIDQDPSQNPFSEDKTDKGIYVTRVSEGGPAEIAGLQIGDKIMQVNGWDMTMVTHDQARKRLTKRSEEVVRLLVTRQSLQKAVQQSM


Key:
Assay in all cases: holdup assay
Set-up in all cases: key: below the threshold = too weak to quantify, mostly under pKd 3.1 to 4
Settings in all cases: plain residues with an end cap or a label only (N-terminal biotin on a linker: ahx)
[1] = biological target: T1, GRIP1_5, Q9Y3R0
[2] = biological target: DLG4_3, P78352
Sequence of DLG4_3, P78352 (P78352 306-403): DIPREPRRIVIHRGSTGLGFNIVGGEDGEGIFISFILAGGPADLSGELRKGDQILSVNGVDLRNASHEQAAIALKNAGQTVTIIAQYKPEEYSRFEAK

[3] = biological target: T2, SYNJ2BP, P57105
[4] = biological target: MAGI2_3, Q86UL8
Sequence of MAGI2_3, Q86UL8 (Q86UL8 600-682): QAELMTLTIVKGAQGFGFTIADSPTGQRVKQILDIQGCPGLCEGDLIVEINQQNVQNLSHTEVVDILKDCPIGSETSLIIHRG

[5] = biological target: T3, TIAM2, Q8IVF5
[6] = biological target: T4, SNTG1, Q9NSN8
[7] = biological target: DLG4_2, P78352
Sequence of DLG4_2, P78352 (P78352 155-259): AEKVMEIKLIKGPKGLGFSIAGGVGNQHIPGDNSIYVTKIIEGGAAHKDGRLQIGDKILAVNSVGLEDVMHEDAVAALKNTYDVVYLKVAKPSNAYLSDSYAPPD

[8] = biological target: T5, NHERF3_4, Q5T2W1
[9] = biological target: T6, SNTG2, Q9NY99
[10] = biological target: TJP1_2, Q07157
Sequence of TJP1_2, Q07157 (Q07157 181-274): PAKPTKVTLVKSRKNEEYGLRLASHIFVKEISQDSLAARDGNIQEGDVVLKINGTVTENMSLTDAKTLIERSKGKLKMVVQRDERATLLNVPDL

[11] = biological target: MAGI2_2, Q86UL8
Sequence of MAGI2_2, Q86UL8 (Q86UL8 410-522): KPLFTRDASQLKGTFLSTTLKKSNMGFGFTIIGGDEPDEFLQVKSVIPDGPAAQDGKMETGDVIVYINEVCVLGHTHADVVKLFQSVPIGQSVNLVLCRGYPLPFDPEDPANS

[12] = biological target: IL16_1, Q14005
Sequence of IL16_1, Q14005 (Q14005 210-306): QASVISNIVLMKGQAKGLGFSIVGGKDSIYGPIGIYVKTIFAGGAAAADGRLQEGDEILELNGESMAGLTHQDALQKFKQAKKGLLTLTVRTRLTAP

[13] = biological target: GRID2IP_1, A4D2P6
Sequence of GRID2IP_1, A4D2P6 (A4D2P6 1-87): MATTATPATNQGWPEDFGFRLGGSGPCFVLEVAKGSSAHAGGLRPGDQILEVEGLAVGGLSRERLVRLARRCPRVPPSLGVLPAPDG

[14] = biological target: SNX27, Q96L92
[15] = biological target: LDB3, O75112
Sequence of LDB3, O75112 (O75112 1-94): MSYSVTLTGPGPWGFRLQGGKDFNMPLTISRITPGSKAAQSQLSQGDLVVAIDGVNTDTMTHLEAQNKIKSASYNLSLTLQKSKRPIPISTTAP

[16] = biological target: MAGI3_2, Q5TCQ9
Sequence of MAGI3_2, Q5TCQ9 (Q5TCQ9 398-503): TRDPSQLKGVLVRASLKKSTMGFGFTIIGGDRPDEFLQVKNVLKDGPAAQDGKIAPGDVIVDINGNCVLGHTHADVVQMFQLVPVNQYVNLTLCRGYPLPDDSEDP

[17] = biological target: T7, LNX2_2, Q8N448
[18] = biological target: T8, MPDZ_12, O75970
[19] = biological target: MAGI2_5, Q86UL8
Sequence of MAGI2_5, Q86UL8 (Q86UL8 915-1017): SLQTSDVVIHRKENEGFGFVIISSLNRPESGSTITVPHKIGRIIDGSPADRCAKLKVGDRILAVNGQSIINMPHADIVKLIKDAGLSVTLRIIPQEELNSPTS

[20] = biological target: SCRIB_2, Q14160
Sequence of SCRIB_2, Q14160 (Q14160 857-960): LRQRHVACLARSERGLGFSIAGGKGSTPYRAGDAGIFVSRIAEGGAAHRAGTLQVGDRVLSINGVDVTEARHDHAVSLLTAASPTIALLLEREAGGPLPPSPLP

[21] = biological target: DLG5_1, Q8TDM6
Sequence of DLG5_1, Q8TDM6 (Q8TDM6 617-713): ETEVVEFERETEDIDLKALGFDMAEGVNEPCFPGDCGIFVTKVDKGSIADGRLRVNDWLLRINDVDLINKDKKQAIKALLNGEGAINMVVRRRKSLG

[22] = biological target: FRMPD2_1, Q68DX3
Sequence of FRMPD2_1, Q68DX3 (Q68DX3 770-861): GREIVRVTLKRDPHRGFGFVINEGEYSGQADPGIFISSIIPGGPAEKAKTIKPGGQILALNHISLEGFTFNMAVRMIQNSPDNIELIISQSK

[23] = biological target: FRMPD2_2, Q68DX3
Sequence of FRMPD2_2, Q68DX3 (Q68DX3 944-1038): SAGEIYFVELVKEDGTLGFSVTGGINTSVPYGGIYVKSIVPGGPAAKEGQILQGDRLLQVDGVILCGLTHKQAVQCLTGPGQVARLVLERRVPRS

[24] = biological target: NOS1, P29475
Sequence of NOS1, P29475 (P29475 9-101): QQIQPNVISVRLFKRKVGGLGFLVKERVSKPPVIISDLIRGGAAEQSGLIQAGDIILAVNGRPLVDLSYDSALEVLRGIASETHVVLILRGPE

[25] = biological target: T9, PDZRN3_1, Q9UPQ7
[26] = biological target: GRID2IP_2, A4D2P6
Sequence of GRID2IP_2, A4D2P6 (A4D2P6 272-370): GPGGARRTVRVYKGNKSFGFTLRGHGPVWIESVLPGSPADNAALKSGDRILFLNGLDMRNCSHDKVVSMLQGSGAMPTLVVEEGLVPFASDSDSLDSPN

[27] = biological target: T10, TX1BP3, O14907
[28] = biological target: PARD3_3, Q8TEW0
Sequence of PARD3_3, Q8TEW0 (Q8TEW0 582-685): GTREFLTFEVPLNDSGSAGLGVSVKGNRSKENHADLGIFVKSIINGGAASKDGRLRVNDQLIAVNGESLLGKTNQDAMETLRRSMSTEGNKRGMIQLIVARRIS

pKd [1] | pKd [2] | pKd [4] | pKd [6] | pKd [7] | pKd [8] | pKd [9] | pKd [10] | pKd [11] | pKd [13] | pKd [14] | pKd [15] | pKd [16] | pKd [17] | pKd [18] | pKd [20] | pKd [21] | pKd [22] | pKd [23] | pKd [25] | Binder | other results
below the threshold | below the threshold | 4.23 | 4.29 | 3.95 | below the threshold | below the threshold | below the threshold | below the threshold | below the threshold | 5.32 | below the threshold | below the threshold | below the threshold | below the threshold | below the threshold | below the threshold | below the threshold | 5.03 | below the threshold | EDEDEQVSAV [RAPGEF2, Q9Y4G8] | pKd [3]: 3.49; pKd [5]: below the threshold; pKd [12]: 4.17; pKd [19]: 4.46; pKd [24]: 3.67; pKd [26]: 4.28; pKd [27]: below the threshold; pKd [28]: 3.91
below the threshold | below the threshold | below the threshold | below the threshold | 3.49 | below the threshold | below the threshold | below the threshold | 4.11 | below the threshold | below the threshold | below the threshold | 4.3 | below the threshold | below the threshold | below the threshold | below the threshold | below the threshold | below the threshold | below the threshold | LCKSHAFSHV [PDLIM7, Q9NR12;Q9NR12-1] | pKd [27]: 3.95; pKd [28]: below the threshold
